Test results: the RNAGym collection of RNA variant scans (doi:10.7554/elife.80360)

B1: Hairpin Ribozyme (parent)
chain: GUCCUCUUUCACGUGCGCGUGAAAGAGAGAAGUGAACCAGAGAAACACACGUUGUGGUAUAUUACCUGGUA

Variants of: B1
Test: self-cleavage, relative activity (ratio to wild type); higher = more cleavage; co-transcriptional

Point of comparison: C66G G69A, self-cleavage 0.185. Against it:
- C65G G68U — lower, 0.102
- U67G A71U — higher, 0.918
- C66U G68C — higher, 0.202
- C66A U67A — higher, 0.234
- G68U U70G — higher, 0.252
- G69U A71U — higher, 0.362
- G69U A71G — higher, 0.438
- G69U A71C — higher, 1.38
- U67C G69U — lower, 0.147
- G69U U70G — higher, 0.299
- U67C U70G — higher, 0.269
- U67C U70C — higher, 0.279
- U67C U70A — higher, 0.229
- G69C U70A — higher, 0.437
- G69C U70C — higher, 0.685
- G68C U70A — lower, 0.143
- C66G A71G — lower, 0.16
- C66G A71C — higher, 0.35
- C66G A71U — lower, 0.168
- G69A A71G — higher, 0.358
- C65U G69A — higher, 0.193
- C65U G69C — lower, 0.0941
- C66A A71G — higher, 0.196
- G68C A71U — lower, 0.126
- C66U U70G — higher, 0.297
- U67A A71U — higher, 0.194
- U67A A71G — higher, 0.196
- C65G G69C — higher, 0.219
- C65G G69U — lower, 0.156
- C66G G68A — lower, 0.123
- U70G A71U — higher, 1.26
- U70G A71C — higher, 1.74
- C66A U70A — higher, 0.279
- U67A G69C — higher, 0.258
- C65U C66G — higher, 0.248
- G68A A71C — higher, 0.348
- G68C G69U — lower, 0.17
- U70C A71G — higher, 1.85
- C65U — higher, 0.323
- C65U A71C — higher, 0.774
- C65U A71G — higher, 0.467
- C65U U70A — higher, 0.379
- C65G U67A — lower, 0.0982
- G68A G69U — lower, 0.172
- C66G U67A — lower, 0.17
- U67C G68U — higher, 0.208
- U67C G68A — higher, 0.231
- C66A — higher, 0.218
- C66U — higher, 0.527
- C66G — lower, 0.181
- U67G G68U — higher, 0.192
- C65G U70A — higher, 0.197
- C66U U67G — lower, 0.0789
- G68U A71U — higher, 0.234
